The values below come from patent publication US20250163137A1 (UNI PHARMA, published 2025).

By Kd is commonly meant the free concentration of one partner at which half of the binding sites on the other are occupied at equilibrium, for simple one-to-one binding. As usually defined, the koff is the first-order rate constant of dissociation. What is called kon is the rate constant with which the complex forms.

In experiment [1] the target is T1, canine FDP (fibrin-fibrinogen degradation products) (canine).
T1 construct: A heterogeneous mixture
The experiment is described as follows: affinity test (RU read-out; instrument not named).

For experiment [2], the target named is T1, canine FDP (fibrin-fibrinogen …). The experiment is described as follows: kinetic analysis, 1:1 binding fit (RU read-out; instrument not named).

T1 sequence (Q9NRC9 whole entry): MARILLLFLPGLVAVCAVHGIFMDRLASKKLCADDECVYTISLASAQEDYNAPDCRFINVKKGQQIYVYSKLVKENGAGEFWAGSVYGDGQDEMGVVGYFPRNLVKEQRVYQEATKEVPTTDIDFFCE

B1: mAb 14G12-5 (antibody, V domains shown)
VH: EVQLVESGGGLVKPGGSLKLSCAASGFAFNAYDMSWVRQTPEKRLEWVAYISSSGDYTYYPDTVKGRFTVSRDNAKSTLYLHMGSLKSEDTAMYYCAVYYHYDEGLDYWGQGTALTVSS
VL: QIVLIQSPAIMSASPGEKVTMTCSASSSVNYMHWYQQKSGTSPKRWIYDTSKLASGVPARFSGSGSGTSYSLTISSMEAEDAATYYCQQWSSNPPTFGGGTKLEIKR
notes: also called 14G12-5 mAb; recombinant antibody 14G12-5
In the case of B1, the dissociation constant Kd in experiment [1] stood at 5.03 µM. Moreover, in experiment [2], the Kd came to 55.2 nM, the koff was 0.0026 s⁻¹ and the on-rate constant (kon) amounted to 47100 M⁻¹ s⁻¹.
